Article PMC7271948, “A baculoviral system for the production of human β-glucocerebrosidase enables atomic resolution analysis” (Acta Crystallographica. Section D, Structural Biology, 2020)

Substrate: Cc1cc(=O)oc2cc(O[C@@H]3O[C@H](CO)[C@@H](O)[C@H](O)[C@H]3O)ccc12
Test: purified protein

B1: β-glucocerebrosidase (GBA) (Homo sapiens) (protein)
chain: ARPCIPKSFGYSSVVCVCNATYCDSFDPPTFPALGTFSRYESTRSGRRMELSMGPIQANHTGTGLLLTLQPEQKFQKVKGFGGAMTDAAALNILALSPPAQNLLLKSYFSEEGIGYNIIRVPMASCDFSIRTYTYADTPDDFQLHNFSLPEEDTKLKIPLIHRALQLAQRPVSLLASPWTSPTWLKTNGAVNGKGSLKGQPGDIYHQTWARYFVKFLDAYAEHKLQFWAVTAENEPSAGLLSGYPFQCLGFTPEHQRDFIARDLGPTLANSTHHNVRLLMLDDQRLLLPHWAKVVLTDPEAAKYVHGIAVHWYLDFLAPAKATLGETHRLFPNTMLFASEACVGSKFWEQSVRLGSWDRGMQYSHSIITNLLYHVVGWTDWNLALNPEGGPNWVRNFVDSPIIVDITKDTFYKQPMFYHLGHFSKFIPEGSQRVGLVASQKNDLDAVALMHPDGSAVVVVLNRSSKDVPLTIKDPAVGFLETISPGYSIHTYLWRRQ
**Q.** With B1 as the protein, how does the Km read?
**A.** 1288 ± 51 µM

**Q.** And the Vmax?
**A.** 11.7 µM/min

**Q.** And the kcat?
**A.** 19.6 s⁻¹
